Measured values taken from the Immune Epitope Database (IEDB).

Biological target: HLA-A*02:01
Experiment: IEDB peptide-MHC binding, purified MHC/direct/fluorescence; filed as Kd, often an IC50 or EC50 that approximates it; ≥ and ≤ were set here for values at or beyond the usual limits of such assays
Conditions: source organism: Influenza A virus (A/Puerto Rico/8/1934(H1N1))

Row | Sequence | Kd [nM]
1 | FLAMITYMT | 253
2 | FLARSALIL | 0.9
3 | FLKDVMESM | 51
4 | FLLMDALKLSI | 24
5 | FMQALHLLL | 13
6 | GMFNMLSTV | 23
7 | GMFNMLSTVL | 384
8 | IILKANFSV | 45
9 | LLQNSQVYS | 1370
10 | MMGMFNMLSTV | 51
11 | MMMGMFNMLST | 36
12 | RMGAVTTEV | 133
13 | SLVGIDPFRL | 70
14 | VLMEWLKTRPI | 101
15 | WMMAMKYPI | 36
16 | WMMAMKYPITA | 75
17 | YLIRALTLNTM | 46
